Reference: publication PMC9504171, “Revealing a New Family of D-2-Hydroxyglutarate Dehydrogenases in Escherichia coli and Pantoea ananatis Encoded by ydiJ” (Microorganisms, 2022)

Legend:
purified protein [1] = substrate: O=C(O)CC[C@@H](O)C(=O)O; test: purified protein; type: biochemical, Escherichia coli; conditions: 200 μM phenazine ethosulfate, 100 μM DCIP, 50 mM Tris-HCl pH 8.0, 25 °C
purified protein [2] = substrate: O=C(O)CC[C@@H](O)C(=O)O; test: purified protein; type: biochemical, Pantoea ananatis; conditions: 200 μM phenazine ethosulfate, 100 μM DCIP, 50 mM Tris-HCl pH 7.5, 25 °C

Protein | Km (purified protein [1]) [µM] | kcat (purified protein [1]) [s⁻¹] | kcat/Km (purified protein [1]) [M⁻¹ s⁻¹] | Km (purified protein [2]) [µM] | kcat (purified protein [2]) [s⁻¹] | kcat/Km (purified protein [2]) [M⁻¹ s⁻¹]
D2HGDHEc (YdiJ, E. coli) (Escherichia coli K-12) (protein, 1018 residues; calculated 113,248 Da; homotetramer ~440 kDa) MIPQISQAPGVVQLVLNFLQELEQQGFTGDTATSYADRLTMSTDNSIYQLLPDAVVFPRSTADVALIARLAAQERYSSLIFTPRGGGTGTNGQALNQGIIVDMSRHMNRIIEINPEEGWVRVEAGVIKDQLNQYLKPFGYFFAPELSTSNRATLGGMINTDASGQGSLVYGKTSDHVLGVRAVLLGGDILDTQPLPVELAETLGKSNTTIGRIYNTVYQRCRQQRQLIIDNFPKLNRFLTGYDLRHVFNDEMTEFDLTRILTGSEGTLAFITEARLDITRLPKVRRLVNVKYDSFDSALRNAPFMVEARALSVETVDSKVLNLAREDIVWHSVSELITDVPDQEMLGLNIVEFAGDDEALIDERVNALCARLDELIASHQAGVIGWQVCRELAGVERIYAMRKKAVGLLGNAKGAAKPIPFAEDTCVPPEHLADYIAEFRALLDSHGLSYGMFGHVDAGVLHVRPALDMCDPQQEILMKQISDDVVALTAKYGGLLWGEHGKGFRAEYSPAFFGEELFAELRKVKAAFDPHNRLNPGKICPPEGLDAPMMKVDAVKRGTFDRQIPIAVRQQWRGAMECNGNGLCFNFDARSPMCPSMKITQNRIHSPKGRATLVREWLRLLADRGVDPLKLEQELPESGVSLRTLIARTRNSWHANKGEYDFSHEVKEAMSGCLACKACSTQCPIKIDVPEFRSRFLQLYHTRYLRPLRDHLVATVESYAPLMARAPKTFNFFINQPLVRKLSEKHIGMVDLPLLSVPSLQQQMVGHRSANMTLEQLESLNAEQKARTVLVVQDPFTSYYDAQVVADFVRLVEKLGFQPVLLPFSPNGKAQHIKGFLNRFAKTAKKTADFLNRMAKLGMPMVGVDPALVLCYRDEYKLALGEERGEFNVLLANEWLASALESQPVATVSGESWYFFGHCTEVTALPGAPAQWAAIFARFGAKLENVSVGCCGMAGTYGHEAKNHENSLGIYELSWHQAMQRLPRNRCLATGYSCRSQVKRVEGTGVRHPVQALLEIIK | 83 ± 5 | 13.9 | 170000 | – | – | –
D2HGDHPa (YdiJ, P. ananatis) (Pantoea ananatis AJ13355) (protein, 1018 residues; calculated 113,453 Da; homotetramer ~440 kDa) MIPQISQAPGLIQRVLTFLETLKAQGFTGDTATSYADRLSLSTDNSIYQLLPDAVLFPRSTADVALIARLAGEAAFSSLVFTPRGGGTGTNGQSLNQGIIVDMSRHMNRILEINTEQRWVRVEAGVVKDQLNAYLKPFGFFFSPELSTSNRATLGGMINTDASGQGSLVYGKTSDHVLGLRAVLLGGDILDTRPVPTALAENLAQTPTPEGRIYQQVLTRCREHRELILEKFPKLNRFLTGYDLRHVFSDDMQTFDLTRLLCGAEGTLAFISEARLDITPLPKVRRVVNIKYDAFDSALRNAPLMVEAQALSVETVDSKVLNLAREDIVWHSVRELITAIPDKEMLGLNIVEFAGDDAGQIDRQITQLCARLDTLMTQQQGGVIGYQLCDDLDGIERIYNMRKKAVGLLGNAKGRAKPIPFVEDTAVPPEHLADYIVEFRALLDSHGLSYGMFGHVDAGVLHVRPALDMCDPHQEMMMKQISDEVVALTARYGGLLWGEHGKGFRAQYSPAFFGETLFNELRRIKAAFDPHNRLNPGKICTPFDSEAAMMQVDATKRGSYDRQIPLQVRETWRGALECNGNGLCFNFDARSPMCPSMKITRNRIHSPKGRATLTREWLRLLAEQGADPVMLEKKLPESSLSLRALISRMRNTWYANKGEYDFSHEVKEAMSGCLACKACSTQCPIKIDVPAFRSRFLQLYHTRYLRPLSDHLVAGVESYAPLMAKAPGVFNFFLKQPWATSFSKTHIGMVDLPLLSSPTLKQQLSGHPAMNMTLEQLEALSETQRAQKVLVVQDPFTSFYEAKLVHDFIRLIEKLGYQPVLLPFSPNGKAQHVKGFLQRFARTASKTADFLNRVAKLGMPMVGIDPATVLCYRDEYHQMLGEARGDFNVLLVHEWLHQALQEREVQVTSGEAWYLFAHCTEVTALPGTPGQWQAIFSRFGAKLENINVGCCGMAGTYGHESQNLENSLGIYALSWHPQLQKLPRQRCLATGFSCRSQVKRVEGNGMRHPLQALLELI | – | – | – | 208 ± 10 | 9.7 | 50000
